In patent publication US20180282393A1 (IMMATICS BIOTECHNOLOGIES, published 2018):

Target: T1, HLA-A*02:01 (human)
T1 construct: Captured on streptavidin plates and detected with anti-b2m; also called peptide-receptive MHC molecules; MHC class I
Test: UV-ligand exchange, anti-b2m ELISA; peptide exchange yield grade (+ >=10%, ++ >=20%, +++ >=50, ++++ >=75%)
Source text: Candidate peptides for T cell based therapies according to the present invention were further tested for their MHC binding capacity (affinity). The individual peptide-MHC complexes were produced by UV-ligand exchange, where a UV-sensitive peptide is cleaved upon UV-irradiation, and exchanged with the peptide of interest as analyzed. Only peptide candidates that can effectively bind and stabilize the peptide-receptive MHC molecules prevent dissociation of the MHC complexes. To determine the yield of the exchange reaction, an ELISA was performed based on the detection of the light chain (β2m) of stabilized MHC complexes. The assay was performed as generally described in Rodenko et al. (Rodenko et al., 2006).
96 well MAXISorp plates (NUNC) were coated over night with 2 ug/ml streptavidin in PBS at room temperature, washed 4× and blocked for 1 h at 37° C. in 2% BSA containing blocking buffer. Refolded HLA-A*02:01/MLA-001 monomers served as standards, covering the range of 15-500 ng/ml. Peptide-MHC monomers of the UV-exchange reaction were diluted 100 fold in blocking buffer. Samples were incubated for 1 h at 37° C., washed four times, incubated with 2 ug/ml HRP conjugated anti-β2m for 1 h at 37° C., washed again and detected with TMB solution that is stopped with […]. Absorption was measured at 450 nm. Candidate peptides that show a high exchange yield (preferably higher than 50%, most preferred higher than 75%) are generally preferred for a generation and production of antibodies or fragments thereof, and/or T cell receptors or fragments thereof, as they show sufficient avidity to the MHC molecules and prevent dissociation of the MHC complexes.

Binder	peptide exchange yield
GLLVGSEKVTM	50 to 75%
KVANIIAEV	20 to 50%
ALQEALENA	20 to 50%
SLDENSDQQV	50 to 75%
KVADYIPQL	50 to 75%
HLLGHLEQA	50 to 75%
KITEAIQYV	50 to 75%
SLAESLDQA	50 to 75%
VLINTSVTL	50 to 75%
LAYTLGVKQL	50 to 75%
SIFEGLLSGV	20 to 50%
ILASLATSV	50 to 75%
PAVLQSSGLYSL	20 to 50%
SMNGGVFAV	20 to 50%
ALADGVVSQA	50 to 75%
ALYEYQPLQI	20 to 50%
GQDVGRYQV	20 to 50%

Binder	peptide exchange yield
GLTDVIRDV	≥ 75%
AVLPHVDQV	50 to 75%
LLDEKVQSV	50 to 75%
SILRHVAEV	20 to 50%
ASDPILYRPVAV	50 to 75%
VLVPYEPPQV	20 to 50%
SIYEYYHAL	50 to 75%
FVLDTSESV	50 to 75%
KLIDDVHRL	≥ 75%
ALLDGGSEAYWRV	50 to 75%
SLADSLYNL	20 to 50%
FLPPAQVTV	20 to 50%
HLIAEIHTA (also called PTHL-001)	50 to 75%
NIIELVHQV	≥ 75%
YVVGGFLYQRL	50 to 75%
FLDNGPKTI	50 to 75%
